Results from PMC9887734, “Meeting abstracts from the 10th International Conference on cGMP: Generators, Effectors and Therapeutic Implications” (Journal of Translational Medicine, 2023).

What was measured:
[1] = molecular target: T1, CNGB3 subunit of the human cone photoreceptor CNG channel (human, UniProt Q9NQW8 1-809); assay: cryo-EM structure; human cone photoreceptor CNG channel CNGA3/CNGB3 in the apo state; conditions: both partners purified
T1 construct: CNGB3, human cone photoreceptor cyclic nucleotide-gated channel subunit; One copy stands in the CNGA3/CNGB3 channel
T1 sequence (looked up): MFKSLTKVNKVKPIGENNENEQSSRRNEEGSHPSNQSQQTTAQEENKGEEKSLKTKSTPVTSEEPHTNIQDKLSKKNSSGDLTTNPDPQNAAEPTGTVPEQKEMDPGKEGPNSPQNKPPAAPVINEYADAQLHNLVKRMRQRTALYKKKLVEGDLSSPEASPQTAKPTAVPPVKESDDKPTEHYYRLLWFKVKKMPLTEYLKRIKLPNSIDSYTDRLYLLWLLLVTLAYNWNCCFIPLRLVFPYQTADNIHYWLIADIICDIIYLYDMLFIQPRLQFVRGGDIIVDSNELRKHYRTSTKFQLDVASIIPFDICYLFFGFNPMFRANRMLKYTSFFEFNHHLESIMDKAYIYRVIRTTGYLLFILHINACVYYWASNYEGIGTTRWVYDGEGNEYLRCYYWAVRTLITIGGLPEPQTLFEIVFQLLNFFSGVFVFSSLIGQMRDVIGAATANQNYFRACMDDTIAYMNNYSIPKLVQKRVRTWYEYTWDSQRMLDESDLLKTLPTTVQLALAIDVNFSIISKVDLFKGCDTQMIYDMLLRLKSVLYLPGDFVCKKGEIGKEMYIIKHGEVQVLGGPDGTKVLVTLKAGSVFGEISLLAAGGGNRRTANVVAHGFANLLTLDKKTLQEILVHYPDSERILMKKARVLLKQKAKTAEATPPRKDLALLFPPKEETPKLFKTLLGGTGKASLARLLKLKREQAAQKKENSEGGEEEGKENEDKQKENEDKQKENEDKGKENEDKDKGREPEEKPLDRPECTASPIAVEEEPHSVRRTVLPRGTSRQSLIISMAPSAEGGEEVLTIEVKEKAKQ

[2] = molecular target: the molecule itself; assay: as above

- stoichiometry N [1]: 3 CNGA3 per CNGB3
B1: CNGA3 subunit of the human cone photoreceptor CNG channel (natural protein, UniProt Q16281 1-694, looked up)
chain: MAKINTQYSHPSRTHLKVKTSDRDLNRAENGLSRAHSSSEETSSVLQPGIAMETRGLADSGQGSFTGQGIARLSRLIFLLRRWAARHVHHQDQGPDSFPDRFRGAELKEVSSQESNAQANVGSQEPADRGRSAWPLAKCNTNTSNNTEEEKKTKKKDAIVVDPSSNLYYRWLTAIALPVFYNWYLLICRACFDELQSEYLMLWLVLDYSADVLYVLDVLVRARTGFLEQGLMVSDTNRLWQHYKTTTQFKLDVLSLVPTDLAYLKVGTNYPEVRFNRLLKFSRLFEFFDRTETRTNYPNMFRIGNLVLYILIIIHWNACIYFAISKFIGFGTDSWVYPNISIPEHGRLSRKYIYSLYWSTLTLTTIGETPPPVKDEEYLFVVVDFLVGVLIFATIVGNVGSMISNMNASRAEFQAKIDSIKQYMQFRKVTKDLETRVIRWFDYLWANKKTVDEKEVLKSLPDKLKAEIAINVHLDTLKKVRIFQDCEAGLLVELVLKLRPTVFSPGDYICKKGDIGKEMYIINEGKLAVVADDGVTQFVVLSDGSYFGEISILNIKGSKSGNRRTANIRSIGYSDLFCLSKDDLMEALTEYPEAKKALEEKGRQILMKDNLIDEELARAGADPKDLEEKVEQLGSSLDTLQTRFARLLAEYNATQMKMKQRLSQLESQVKGGGDKPLADGEVPGDATKTEDKQQ
notes: CNGA3, human cone photoreceptor cyclic nucleotide-gated channel subunit; Three copies stand in the CNGA3/CNGB3 channel whose cryo-EM structure (apo state) is reported
- binding result [2]: binds
